Measured values as given in patent US20140072613A1, “Compositions and Methods for Treating Cutaneous Scarring” (priority 2012, published 2014).

Assays:
Assay in all cases: biochemical
Assay type in all cases: biochemical
266 human kinases [1] = molecular target: 266 human kinases (Homo sapiens, UniProt P08581, D1228N); conditions: Met(D1246N)(h); 100 μM
Outline: (§1)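 Read-out by scintillation counting of radiolabelled, positively charged substrate bound to negatively charged filter; activity normalised to 100% control. Phosphate transferred from radiolabelled ATP.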

266 human kinases [2] = molecular target: T1, 266 human kinases (Homo sapiens, UniProt O60285); conditions: ARK5(h); 100 μM
T1 sequence (O60285 1-661): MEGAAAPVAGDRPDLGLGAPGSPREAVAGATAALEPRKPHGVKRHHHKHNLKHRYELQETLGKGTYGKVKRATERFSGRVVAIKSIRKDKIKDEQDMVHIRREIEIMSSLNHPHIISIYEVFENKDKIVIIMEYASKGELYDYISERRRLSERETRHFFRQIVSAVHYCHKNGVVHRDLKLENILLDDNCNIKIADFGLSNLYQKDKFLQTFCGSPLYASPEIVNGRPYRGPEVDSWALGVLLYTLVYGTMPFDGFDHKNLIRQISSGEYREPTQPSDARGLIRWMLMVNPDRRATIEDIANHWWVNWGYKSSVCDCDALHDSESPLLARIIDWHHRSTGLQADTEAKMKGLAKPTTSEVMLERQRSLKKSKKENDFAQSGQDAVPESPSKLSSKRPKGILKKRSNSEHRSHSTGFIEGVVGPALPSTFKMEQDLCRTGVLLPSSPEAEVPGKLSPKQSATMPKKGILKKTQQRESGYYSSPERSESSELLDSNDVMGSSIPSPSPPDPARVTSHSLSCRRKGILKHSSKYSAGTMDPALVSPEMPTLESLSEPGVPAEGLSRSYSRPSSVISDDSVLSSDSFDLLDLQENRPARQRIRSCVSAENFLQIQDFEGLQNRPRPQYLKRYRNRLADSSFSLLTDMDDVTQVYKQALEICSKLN
Outline: as §1

266 human kinases [3] = molecular target: 266 human kinases (Homo sapiens, UniProt Q04759); conditions: PKCθ(h); 100 μM
Outline: as §1

266 human kinases [4] = molecular target: T2, 266 human kinases (Homo sapiens, UniProt Q8TDC3); conditions: BrSK1(h); 100 μM
T2 sequence (Q8TDC3 1-778): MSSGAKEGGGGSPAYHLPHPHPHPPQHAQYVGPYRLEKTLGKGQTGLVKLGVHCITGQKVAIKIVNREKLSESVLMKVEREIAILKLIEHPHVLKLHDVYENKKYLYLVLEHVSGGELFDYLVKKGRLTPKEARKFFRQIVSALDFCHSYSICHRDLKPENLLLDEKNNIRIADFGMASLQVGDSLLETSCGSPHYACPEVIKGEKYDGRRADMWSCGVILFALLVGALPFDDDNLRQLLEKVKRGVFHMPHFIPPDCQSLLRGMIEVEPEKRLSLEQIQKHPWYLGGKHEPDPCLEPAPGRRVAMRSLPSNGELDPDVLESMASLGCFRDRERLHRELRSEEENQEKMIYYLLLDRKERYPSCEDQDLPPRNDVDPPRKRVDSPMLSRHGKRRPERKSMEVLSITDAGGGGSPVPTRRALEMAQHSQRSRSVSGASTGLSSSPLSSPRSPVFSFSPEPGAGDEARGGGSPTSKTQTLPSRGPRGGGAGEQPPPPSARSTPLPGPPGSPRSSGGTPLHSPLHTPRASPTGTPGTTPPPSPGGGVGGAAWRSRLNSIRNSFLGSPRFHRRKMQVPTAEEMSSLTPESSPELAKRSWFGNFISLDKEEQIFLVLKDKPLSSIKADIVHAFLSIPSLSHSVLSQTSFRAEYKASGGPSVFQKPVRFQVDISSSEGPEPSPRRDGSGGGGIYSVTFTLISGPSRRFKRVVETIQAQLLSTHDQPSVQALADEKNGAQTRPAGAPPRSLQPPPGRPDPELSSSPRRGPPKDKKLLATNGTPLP
Outline: as §1

266 human kinases [5] = molecular target: T3, 266 human kinases (Homo sapiens, UniProt P36896); conditions: ALK4(h); 100 μM
T3 sequence (P36896 24-505): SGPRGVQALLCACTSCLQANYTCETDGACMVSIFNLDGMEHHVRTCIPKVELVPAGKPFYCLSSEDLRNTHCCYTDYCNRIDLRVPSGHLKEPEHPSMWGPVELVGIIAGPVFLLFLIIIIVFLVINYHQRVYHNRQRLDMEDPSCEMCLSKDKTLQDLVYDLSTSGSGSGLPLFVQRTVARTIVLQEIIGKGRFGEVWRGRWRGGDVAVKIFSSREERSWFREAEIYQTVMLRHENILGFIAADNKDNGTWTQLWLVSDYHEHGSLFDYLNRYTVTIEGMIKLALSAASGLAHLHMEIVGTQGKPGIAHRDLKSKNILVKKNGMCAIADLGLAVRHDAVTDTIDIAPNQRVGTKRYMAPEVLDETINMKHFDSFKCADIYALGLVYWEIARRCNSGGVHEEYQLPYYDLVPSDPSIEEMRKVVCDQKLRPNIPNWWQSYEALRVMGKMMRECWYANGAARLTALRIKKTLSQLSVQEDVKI
Outline: as §1

266 human kinases [6] = molecular target: 266 human kinases (Homo sapiens, UniProt Q9Y3S1); conditions: WNK2(h); 100 μM
Outline: as §1

Chain of 266 human kinases (Homo sapiens, UniProt Q9Y3S1) (Q9Y3S1 whole entry): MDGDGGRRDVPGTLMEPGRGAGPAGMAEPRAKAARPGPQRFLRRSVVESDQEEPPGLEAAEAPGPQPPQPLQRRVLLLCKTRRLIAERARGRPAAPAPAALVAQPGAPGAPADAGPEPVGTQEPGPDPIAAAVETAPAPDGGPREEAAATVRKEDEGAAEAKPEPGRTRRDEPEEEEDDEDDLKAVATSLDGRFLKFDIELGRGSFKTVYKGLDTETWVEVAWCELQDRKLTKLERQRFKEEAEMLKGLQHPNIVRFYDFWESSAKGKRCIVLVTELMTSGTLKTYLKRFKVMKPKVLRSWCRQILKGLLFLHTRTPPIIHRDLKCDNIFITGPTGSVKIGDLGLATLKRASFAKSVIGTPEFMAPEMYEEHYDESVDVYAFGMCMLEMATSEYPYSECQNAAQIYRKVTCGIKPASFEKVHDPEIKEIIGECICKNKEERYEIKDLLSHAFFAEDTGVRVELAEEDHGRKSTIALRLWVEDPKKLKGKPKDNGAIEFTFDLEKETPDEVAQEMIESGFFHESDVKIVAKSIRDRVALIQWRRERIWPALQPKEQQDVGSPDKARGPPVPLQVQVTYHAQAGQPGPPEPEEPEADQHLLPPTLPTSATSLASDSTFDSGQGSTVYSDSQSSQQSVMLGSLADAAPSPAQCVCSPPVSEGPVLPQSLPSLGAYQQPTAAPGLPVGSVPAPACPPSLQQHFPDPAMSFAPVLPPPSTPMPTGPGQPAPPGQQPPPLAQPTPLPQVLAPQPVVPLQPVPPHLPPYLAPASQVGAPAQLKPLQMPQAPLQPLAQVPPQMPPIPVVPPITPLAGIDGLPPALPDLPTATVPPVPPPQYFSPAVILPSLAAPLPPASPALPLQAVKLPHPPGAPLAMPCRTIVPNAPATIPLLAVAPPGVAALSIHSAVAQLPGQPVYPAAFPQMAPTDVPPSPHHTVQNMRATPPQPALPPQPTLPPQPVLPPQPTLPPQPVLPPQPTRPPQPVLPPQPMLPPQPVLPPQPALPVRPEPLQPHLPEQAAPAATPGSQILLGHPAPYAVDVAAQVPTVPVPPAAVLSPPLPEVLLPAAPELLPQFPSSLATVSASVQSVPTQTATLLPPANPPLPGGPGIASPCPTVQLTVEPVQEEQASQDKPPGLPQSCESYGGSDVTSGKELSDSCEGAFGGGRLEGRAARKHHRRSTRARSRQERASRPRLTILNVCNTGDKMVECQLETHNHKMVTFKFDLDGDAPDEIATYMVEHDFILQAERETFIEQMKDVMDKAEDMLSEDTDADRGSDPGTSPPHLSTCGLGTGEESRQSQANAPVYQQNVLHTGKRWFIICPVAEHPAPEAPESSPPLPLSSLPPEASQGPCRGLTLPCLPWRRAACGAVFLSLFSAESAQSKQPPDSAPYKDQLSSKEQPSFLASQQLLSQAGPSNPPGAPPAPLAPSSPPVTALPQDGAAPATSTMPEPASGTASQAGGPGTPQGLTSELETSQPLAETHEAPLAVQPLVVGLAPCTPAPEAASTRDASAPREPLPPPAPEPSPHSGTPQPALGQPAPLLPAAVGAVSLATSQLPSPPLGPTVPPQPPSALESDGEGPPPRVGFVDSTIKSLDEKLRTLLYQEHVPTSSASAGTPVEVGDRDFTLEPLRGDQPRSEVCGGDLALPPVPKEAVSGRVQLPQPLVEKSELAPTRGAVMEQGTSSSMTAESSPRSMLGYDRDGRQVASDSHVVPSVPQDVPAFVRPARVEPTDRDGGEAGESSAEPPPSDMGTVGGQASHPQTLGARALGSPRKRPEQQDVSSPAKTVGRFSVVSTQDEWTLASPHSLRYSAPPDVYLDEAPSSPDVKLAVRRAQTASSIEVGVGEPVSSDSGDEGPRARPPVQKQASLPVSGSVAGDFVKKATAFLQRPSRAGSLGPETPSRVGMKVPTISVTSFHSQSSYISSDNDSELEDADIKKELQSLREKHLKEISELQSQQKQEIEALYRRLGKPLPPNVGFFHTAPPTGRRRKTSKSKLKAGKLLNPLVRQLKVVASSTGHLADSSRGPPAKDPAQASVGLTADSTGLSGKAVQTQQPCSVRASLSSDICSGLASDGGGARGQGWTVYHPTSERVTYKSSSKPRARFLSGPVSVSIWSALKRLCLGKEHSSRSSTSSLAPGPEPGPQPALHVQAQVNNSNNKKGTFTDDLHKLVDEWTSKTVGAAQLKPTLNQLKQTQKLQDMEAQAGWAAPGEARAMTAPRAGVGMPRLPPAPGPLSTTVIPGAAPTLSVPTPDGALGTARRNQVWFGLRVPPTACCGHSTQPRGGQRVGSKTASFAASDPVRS
Chain of 266 human kinases (Homo sapiens, UniProt Q04759) (Q04759 whole entry): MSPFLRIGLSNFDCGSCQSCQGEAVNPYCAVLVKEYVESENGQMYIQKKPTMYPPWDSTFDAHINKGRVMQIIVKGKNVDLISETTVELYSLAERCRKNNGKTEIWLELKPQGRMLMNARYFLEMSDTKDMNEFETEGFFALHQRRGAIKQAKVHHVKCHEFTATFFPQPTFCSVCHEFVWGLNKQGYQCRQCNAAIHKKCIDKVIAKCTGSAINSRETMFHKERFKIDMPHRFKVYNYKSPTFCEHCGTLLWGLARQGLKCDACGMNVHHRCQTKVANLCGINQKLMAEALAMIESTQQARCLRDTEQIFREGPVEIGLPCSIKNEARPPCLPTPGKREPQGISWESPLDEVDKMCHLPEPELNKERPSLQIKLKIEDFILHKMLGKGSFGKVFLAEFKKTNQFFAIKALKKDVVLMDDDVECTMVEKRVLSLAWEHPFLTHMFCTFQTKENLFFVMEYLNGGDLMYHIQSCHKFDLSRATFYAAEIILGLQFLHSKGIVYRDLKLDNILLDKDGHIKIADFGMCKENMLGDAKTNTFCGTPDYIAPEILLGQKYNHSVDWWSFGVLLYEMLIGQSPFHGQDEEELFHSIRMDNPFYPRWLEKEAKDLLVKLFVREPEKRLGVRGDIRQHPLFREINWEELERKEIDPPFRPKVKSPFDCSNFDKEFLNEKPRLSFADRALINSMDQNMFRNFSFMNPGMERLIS

| Sequence | % activity (266 human kinases [1]) [%] | % activity (266 human kinases [2]) [%] | % activity (266 human kinases [3]) [%] | % activity (266 human kinases [4]) [%] | % activity (266 human kinases [5]) [%] | % activity (266 human kinases [6]) [%] |
| --- | --- | --- | --- | --- | --- | --- |
| HRRIKAWLKKIKALARQLGVAA (mammal) [MMI-0500] | 90 | 20 | 62 | 72 | 81 | 8 |
| YARAAARQARAKALNRQLGVA (mammal) [MMI-0200] | 149 | 93 | 101 | 93 | 152 | 94 |
